The record followed here is PMC10465345, “Development of a growth-coupled selection platform for directed evolution of heme biosynthetic enzymes in Corynebacterium glutamicum” (Frontiers in Bioengineering and Biotechnology, 2023).

Substrate in this data set: CC1=C(CCC(=O)O)c2cc3nc(cc4[nH]c(cc5[nH]c(cc1n2)c(C)c5CCC(=O)O)c(CCC(=O)O)c4C)C(CCC(=O)O)=C3C
The data set is described as follows: purified protein. The class given is biochemical, Corynebacterium glutamicum. The note with it: ferrous ammonium sulfate 100 uM, Tris-HCl pH 8.0, 3.3% Tween 20, 5 mM glutathione, 30 °C.

B1: CpfC (coproporphyrin ferrochelatase) (Corynebacterium glutamicum ATCC 13032) (protein)
chain: MNERTSDAFDALLVLSFGGPEGHEEVRPFLENVTHGRGIPPERLDEVAVHYHHFGGISPINALNREIIANVEKELASRDHKLPVYFGNRNWKPFDNEAAEQMADDGVKNALVLATSAWGGYSGCRQYQEDIQGMIKHLESQGQSITFTKLRQFYDHPRFVSTMAQLVQDSYAKLPDELRDEARLVFTAHSIPLTADNAAGTPEDGSLYSTQVKEASALIAEAVGVSDFDVVWQSRSGSPHTPWLEPDIVDHAVELNEKGQKALVVCPVGFISDHMEVIWDLDSELMEEAEKRNMVVERVATVGPTDEFAALVVDLIEEAELKRVIERLGKLPARGSSVNGAPCGDGCCGTAKHKTARVNPNARSAAPAAN
notes: heterologously expressed in E. coli BL21, purified
In the case of B1, the Km is given as 15.17 ± 1.84 × 10^-3 mM; the kcat – broadly, the number of substrate molecules converted per active site and unit of time at saturation – was 0.26 ± 0.09 s⁻¹; the kcat/Km (in general, the turnover number divided by the Michaelis constant) was 17430 ± 110 M⁻¹ s⁻¹.

B2: CpfC (coproporphyrin ferrochelatase) (Corynebacterium glutamicum ATCC 13032; E181G) (protein)
chain: MNERTSDAFDALLVLSFGGPEGHEEVRPFLENVTHGRGIPPERLDEVAVHYHHFGGISPINALNREIIANVEKELASRDHKLPVYFGNRNWKPFDNEAAEQMADDGVKNALVLATSAWGGYSGCRQYQEDIQGMIKHLESQGQSITFTKLRQFYDHPRFVSTMAQLVQDSYAKLPDELRDGARLVFTAHSIPLTADNAAGTPEDGSLYSTQVKEASALIAEAVGVSDFDVVWQSRSGSPHTPWLEPDIVDHAVELNEKGQKALVVCPVGFISDHMEVIWDLDSELMEEAEKRNMVVERVATVGPTDEFAALVVDLIEEAELKRVIERLGKLPARGSSVNGAPCGDGCCGTAKHKTARVNPNARSAAPAAN
notes: as for B1
On to B2, for which the Km is 10.04 ± 1.52 × 10^-3 mM, the kcat was 0.3 ± 0.04 s⁻¹ and the kcat/Km worked out at 30600 ± 4310 M⁻¹ s⁻¹.

B3: CpfC (coproporphyrin ferrochelatase) (Corynebacterium glutamicum ATCC 13032; E100D/E31V) (protein)
chain: MNERTSDAFDALLVLSFGGPEGHEEVRPFLVNVTHGRGIPPERLDEVAVHYHHFGGISPINALNREIIANVEKELASRDHKLPVYFGNRNWKPFDNEAADQMADDGVKNALVLATSAWGGYSGCRQYQEDIQGMIKHLESQGQSITFTKLRQFYDHPRFVSTMAQLVQDSYAKLPDELRDEARLVFTAHSIPLTADNAAGTPEDGSLYSTQVKEASALIAEAVGVSDFDVVWQSRSGSPHTPWLEPDIVDHAVELNEKGQKALVVCPVGFISDHMEVIWDLDSELMEEAEKRNMVVERVATVGPTDEFAALVVDLIEEAELKRVIERLGKLPARGSSVNGAPCGDGCCGTAKHKTARVNPNARSAAPAAN
notes: as for B1
On to B3, for which the Km is on record as 9.78 ± 0.82 × 10^-3 mM, the kcat came to 0.36 ± 0.04 s⁻¹ and the kcat/Km worked out at 37000 ± 4520 M⁻¹ s⁻¹.

B4: CpfC (coproporphyrin ferrochelatase) (Corynebacterium glutamicum ATCC 13032; T194S) (protein)
chain: MNERTSDAFDALLVLSFGGPEGHEEVRPFLENVTHGRGIPPERLDEVAVHYHHFGGISPINALNREIIANVEKELASRDHKLPVYFGNRNWKPFDNEAAEQMADDGVKNALVLATSAWGGYSGCRQYQEDIQGMIKHLESQGQSITFTKLRQFYDHPRFVSTMAQLVQDSYAKLPDELRDEARLVFTAHSIPLSADNAAGTPEDGSLYSTQVKEASALIAEAVGVSDFDVVWQSRSGSPHTPWLEPDIVDHAVELNEKGQKALVVCPVGFISDHMEVIWDLDSELMEEAEKRNMVVERVATVGPTDEFAALVVDLIEEAELKRVIERLGKLPARGSSVNGAPCGDGCCGTAKHKTARVNPNARSAAPAAN
notes: as for B1
In the case of B4, the Km was 11.63 ± 1.50 × 10^-3 mM, the kcat is 0.32 ± 0.06 s⁻¹ and the kcat/Km was found to be 27300 ± 4880 M⁻¹ s⁻¹.

B5: CpfC (coproporphyrin ferrochelatase) (Corynebacterium glutamicum ATCC 13032; E100D) (protein)
chain: MNERTSDAFDALLVLSFGGPEGHEEVRPFLENVTHGRGIPPERLDEVAVHYHHFGGISPINALNREIIANVEKELASRDHKLPVYFGNRNWKPFDNEAADQMADDGVKNALVLATSAWGGYSGCRQYQEDIQGMIKHLESQGQSITFTKLRQFYDHPRFVSTMAQLVQDSYAKLPDELRDEARLVFTAHSIPLTADNAAGTPEDGSLYSTQVKEASALIAEAVGVSDFDVVWQSRSGSPHTPWLEPDIVDHAVELNEKGQKALVVCPVGFISDHMEVIWDLDSELMEEAEKRNMVVERVATVGPTDEFAALVVDLIEEAELKRVIERLGKLPARGSSVNGAPCGDGCCGTAKHKTARVNPNARSAAPAAN
notes: as for B1
Take B5: the Km is 9.40 ± 1.50 × 10^-3 mM, the kcat stood at 0.36 ± 0.06 s⁻¹ and the kcat/Km was found to be 38100 ± 650 M⁻¹ s⁻¹.

B6: CpfC (coproporphyrin ferrochelatase) (Corynebacterium glutamicum ATCC 13032; E31V) (protein)
chain: MNERTSDAFDALLVLSFGGPEGHEEVRPFLVNVTHGRGIPPERLDEVAVHYHHFGGISPINALNREIIANVEKELASRDHKLPVYFGNRNWKPFDNEAAEQMADDGVKNALVLATSAWGGYSGCRQYQEDIQGMIKHLESQGQSITFTKLRQFYDHPRFVSTMAQLVQDSYAKLPDELRDEARLVFTAHSIPLTADNAAGTPEDGSLYSTQVKEASALIAEAVGVSDFDVVWQSRSGSPHTPWLEPDIVDHAVELNEKGQKALVVCPVGFISDHMEVIWDLDSELMEEAEKRNMVVERVATVGPTDEFAALVVDLIEEAELKRVIERLGKLPARGSSVNGAPCGDGCCGTAKHKTARVNPNARSAAPAAN
notes: as for B1
Take B6: the Km is given as 8.26 ± 0.52 × 10^-3 mM, the kcat was determined as 0.43 ± 0.01 s⁻¹ and the kcat/Km was 52900 ± 1400 M⁻¹ s⁻¹.
